The values below come from patent US20250313611A1.

In the assay the target is SARS-COV-2 spike [change] trimer ([change]-foldon-His-Strep) (SARS-CoV-2 (Wuhan)) (UniProt P0DTC2).

Turning to VHH72-S56A, the IC50 (read off the curve) is 0.6 µg/mL.
